According to the Human Domainome abundance scans (Beltran et al. 2025):
± gives the uncertainty stated by the source.

B1: Peripheral plasma membrane protein CASK, residues 488 to 569; numbered along this chain, O14936 (parent)
chain: VRLVQFQKNTDEPMGITLKMNELNHCIVARIMHGGMIHRQGTLHVGDEIREINGISVANQTVEQLQKMLREMRGSITFKIVP

Variants of: B1
Test: abundance fitness (aPCA) (normalised: wild type 0, dead -1); higher = more abundant; growth selection in yeast, the domain comes from the species named
Conditions: Homo sapiens

Variant	abundance fitness
VRLVQFQKNTDEPMGITLKMNELNHCIVARIMHGGMIHRQGTLHVGDEIREINGISVANQTVEQLQKMLREMRGSITFKIAP	-0.054 ± 0.034
VRLVQFQKNTDEPMGITLKMNELNHCIVARIMHGGMIHRQGTLHVGLEIREINGISVANQTVEQLQKMLREMRGSITFKIVP	-0.878 ± 0.13
VRLVQFQKNTDEPMGITLKMPELNHCIVARIMHGGMIHRQGTLHVGDEIREINGISVANQTVEQLQKMLREMRGSITFKIVP	-0.33 ± 0.031
VRLVQFQKNTDEPMGITLKMNELNHCIVARIMHGGMIHRQGTLHVGDEIREINGISVANQTVEQLQEMLREMRGSITFKIVP	0.009 ± 0.032
VRLVQFQKNTDEPMGITLKMNELNHCIVARIMHGGMIHRQGTLHVGDEIREINGISVANQTVEQLQGMLREMRGSITFKIVP	-0.014 ± 0.024
VRLVQFQKNTDEPMGITLKMNELNHCIVARKMHGGMIHRQGTLHVGDEIREINGISVANQTVEQLQKMLREMRGSITFKIVP	-0.93 ± 0.15
VRLVQFQKNTDEPMGITLKMNELNHCIVARIMHGGMIHRQGTLHVGDEIREINGISVANQTVEQLQKMLREMRGSNTFKIVP	-0.186 ± 0.051
VRLVQFQKNTDEPMGITLKMNELNHCIVARIMHGGMIHRQGTLHVGDEIREINGIFVANQTVEQLQKMLREMRGSITFKIVP	-0.229 ± 0.05
VRLVQFQKNTDEPMGITLKMNELNHCIVARIMHGGMIHRQGTLHVGDEIREINGISVANQTVEQLQKMLREMQGSITFKIVP	-0.006 ± 0.031
VRLVQFQKNTDEPMGITLKMNELNHCIVARIMHGGMIHRQGHLHVGDEIREINGISVANQTVEQLQKMLREMRGSITFKIVP	-0.065 ± 0.045
VRLVQFQKNTDEPMGITLKMNELNHCIVARIMHGGMIHRQGTLHVGDEIREINGISVANQTVQQLQKMLREMRGSITFKIVP	-0.009 ± 0.032
VRLVQFQKNTDEPMGITLKMNELNHCIVARIMHGGMIHRQGTLHVGDEIFEINGISVANQTVEQLQKMLREMRGSITFKIVP	-0.211 ± 0.15
VRLVQFQKNTDEPMGITLKMNEQNHCIVARIMHGGMIHRQGTLHVGDEIREINGISVANQTVEQLQKMLREMRGSITFKIVP	0.043 ± 0.035
VRLVQFQKTTDEPMGITLKMNELNHCIVARIMHGGMIHRQGTLHVGDEIREINGISVANQTVEQLQKMLREMRGSITFKIVP	0.024 ± 0.029
VRLVQFQKNTDEPMGITLKMNELNHCIVARIMHGGMIHRQGTLHVGDEIREIDGISVANQTVEQLQKMLREMRGSITFKIVP	-0.27 ± 0.05
VRLVQFQKNTDEPMGITLKMNELNHCIVGRIMHGGMIHRQGTLHVGDEIREINGISVANQTVEQLQKMLREMRGSITFKIVP	-0.08 ± 0.027
VRLVQFQKNTHEPMGITLKMNELNHCIVARIMHGGMIHRQGTLHVGDEIREINGISVANQTVEQLQKMLREMRGSITFKIVP	0.075 ± 0.077
VRLVQFQKNTDEPMGITLKMNELNHCIVARIMHGGMIHRQGTLHVGDEIREINGISVANQTVEQLQKMLRKMRGSITFKIVP	0.004 ± 0.037
VRLVQFQKNTDEPMGITLKMNELNHCIVARIMHGGMIHRQGTLHVGDEIREINGISVANQTVEQLQKMLRGMRGSITFKIVP	0.006 ± 0.022
VRLVQFQKNTDEPMGITLRMNELNHCIVARIMHGGMIHRQGTLHVGDEIREINGISVANQTVEQLQKMLREMRGSITFKIVP	-0.017 ± 0.023
VRLVQMQKNTDEPMGITLKMNELNHCIVARIMHGGMIHRQGTLHVGDEIREINGISVANQTVEQLQKMLREMRGSITFKIVP	0.052 ± 0.027
VRLVQVQKNTDEPMGITLKMNELNHCIVARIMHGGMIHRQGTLHVGDEIREINGISVANQTVEQLQKMLREMRGSITFKIVP	0.061 ± 0.022
VRLVQFQKNTDEPMGITLKMNELNHCIVARIMHGGMWHRQGTLHVGDEIREINGISVANQTVEQLQKMLREMRGSITFKIVP	-0.333 ± 0.03

Variant	abundance fitness
VRLVQFQKNTDEPMGITLKMNELNHCIVARIMHGGMIHRQGTLHVGDECREINGISVANQTVEQLQKMLREMRGSITFKIVP	-0.855 ± 0.17
VRLVQFQKNTDEPMGITLKMNELNHCIVARIMHGGMIHRQGTLHVGDEGREINGISVANQTVEQLQKMLREMRGSITFKIVP	-1.05 ± 0.11
VRLVQFQKNTDEPMGITLKMNELNHCIVARIMHGGMIHRQGTTHVGDEIREINGISVANQTVEQLQKMLREMRGSITFKIVP	-0.76 ± 0.06
VRLVQFQKNTDEPMGTTLKMNELNHCIVARIMHGGMIHRQGTLHVGDEIREINGISVANQTVEQLQKMLREMRGSITFKIVP	-0.659 ± 0.073
VRLVQFQKNTDEPMGITLKMNELNHCIVARIMHGGMIHRQGTLHVGDEIREINGISVCNQTVEQLQKMLREMRGSITFKIVP	-0.042 ± 0.036
VRLVQFQKNTDEPMGITLKMNELNHCIVARIMHGGMIHRQGTLHVGDEIREINGISVMNQTVEQLQKMLREMRGSITFKIVP	-0.038 ± 0.041
VRLVQFQKNTDEPMGITLKMNELNHCIVARIMHGGMIHRQGTLHVWDEIREINGISVANQTVEQLQKMLREMRGSITFKIVP	-0.951 ± 0.092
VRLVQFQKNTDEPMGITLKMNELNHCIVARIMHGGMIHRQGTLHVSDEIREINGISVANQTVEQLQKMLREMRGSITFKIVP	-0.491 ± 0.041
VRLVQFQKNTDEPMGITLKMNELNHCIVARIMHGGMIHRQGTLHVGDEIREINGISVANQTVEQLQKMLREMRGSITFHIVP	-0.006 ± 0.039
VRLVQFQKNTDEPMGITLKMNELNHCIVARIMHGGMIHRQGTLHVGDEIREINGISVANQTVEQLQKMLREMRGSITFMIVP	-0.133 ± 0.044
VRLVQFQKNTDEPMGITLKMNELNHCIVARITHGGMIHRQGTLHVGDEIREINGISVANQTVEQLQKMLREMRGSITFKIVP	0.015 ± 0.044
VRLKQFQKNTDEPMGITLKMNELNHCIVARIMHGGMIHRQGTLHVGDEIREINGISVANQTVEQLQKMLREMRGSITFKIVP	-0.259 ± 0.039
VRLVQFQKNTDEPMGITLKMNELNNCIVARIMHGGMIHRQGTLHVGDEIREINGISVANQTVEQLQKMLREMRGSITFKIVP	0.027 ± 0.036
VRLVSFQKNTDEPMGITLKMNELNHCIVARIMHGGMIHRQGTLHVGDEIREINGISVANQTVEQLQKMLREMRGSITFKIVP	0.075 ± 0.024
VRLVWFQKNTDEPMGITLKMNELNHCIVARIMHGGMIHRQGTLHVGDEIREINGISVANQTVEQLQKMLREMRGSITFKIVP	-0.106 ± 0.028
VRLVEFQKNTDEPMGITLKMNELNHCIVARIMHGGMIHRQGTLHVGDEIREINGISVANQTVEQLQKMLREMRGSITFKIVP	0.149 ± 0.027
VRLVKFQKNTDEPMGITLKMNELNHCIVARIMHGGMIHRQGTLHVGDEIREINGISVANQTVEQLQKMLREMRGSITFKIVP	0.128 ± 0.03
VRLVQFQKNTDEPMGITLKMNELNHCIVARIMHGGMIHRQGTLHVGDEIREINGISVANQTVEQLQKMLREMRGCITFKIVP	-0.011 ± 0.036
VRLVQFQKNTDEPMGITLKMNELNHCIVARIMHGGMIHRQGTLHVGDEIREINGISMANQTVEQLQKMLREMRGSITFKIVP	-0.079 ± 0.035
VRLVQFQKNTDEPMGITLKMNELNHCIVARIMHGGMIHRQGTLHVGDEIREINGISVANQRVEQLQKMLREMRGSITFKIVP	-0.095 ± 0.022
VRLVQFQKNTDEPMGITLKMNELNHCIVARIMHGGMIHRQGTLHVGDEIREINGISVANQGVEQLQKMLREMRGSITFKIVP	-0.015 ± 0.023
VRLVQFQKNTDEPMGITLKMNDLNHCIVARIMHGGMIHRQGTLHVGDEIREINGISVANQTVEQLQKMLREMRGSITFKIVP	0.031 ± 0.036
VRLVQFQKNTDEPMGITLKMNELNHCIVARIMHRGMIHRQGTLHVGDEIREINGISVANQTVEQLQKMLREMRGSITFKIVP	-0.194 ± 0.035

Variant	abundance fitness
VRLVQFQKNTDEPMGITLKMNELNHCIVARIMHPGMIHRQGTLHVGDEIREINGISVANQTVEQLQKMLREMRGSITFKIVP	-0.373 ± 0.06
VRLVQFQKNTDEPMGITLKMNELNHCIVALIMHGGMIHRQGTLHVGDEIREINGISVANQTVEQLQKMLREMRGSITFKIVP	-0.283 ± 0.035
VRLVQFQKNTDEPMGITLKMNELNHCIVAYIMHGGMIHRQGTLHVGDEIREINGISVANQTVEQLQKMLREMRGSITFKIVP	0.015 ± 0.092
VRLVQFQKNTDEPMGITLKMNELIHCIVARIMHGGMIHRQGTLHVGDEIREINGISVANQTVEQLQKMLREMRGSITFKIVP	-0.89 ± 0.11
VRLVQFQKNTDEPMGITLKMNELNHCIVARIMHGGMIHRQGTLHVGDEIREINGISVACQTVEQLQKMLREMRGSITFKIVP	-0.114 ± 0.043
VRLVQFQKNTDEPMGITLKMNELNHCIEARIMHGGMIHRQGTLHVGDEIREINGISVANQTVEQLQKMLREMRGSITFKIVP	-1.01 ± 0.068
VRLVQFQKNTDEPMGITSKMNELNHCIVARIMHGGMIHRQGTLHVGDEIREINGISVANQTVEQLQKMLREMRGSITFKIVP	-0.699 ± 0.063
VRLVQFQKNTDEPMGITVKMNELNHCIVARIMHGGMIHRQGTLHVGDEIREINGISVANQTVEQLQKMLREMRGSITFKIVP	-0.088 ± 0.029
VRLVQFQKNTDEPMGITLKMNELNHCIVARIMHGGMIHAQGTLHVGDEIREINGISVANQTVEQLQKMLREMRGSITFKIVP	-0.035 ± 0.022
VRLVQFQKNTDEPMGIILKMNELNHCIVARIMHGGMIHRQGTLHVGDEIREINGISVANQTVEQLQKMLREMRGSITFKIVP	0.092 ± 0.03
VRLVQFQKNTDEPMGITLKMNELNHCIVARIMHGGMIHRQGTLHVGDEIREINGISVANQTVEQLQKMLQEMRGSITFKIVP	-0.023 ± 0.031
VRLVQFQKNTDEPMGITLKMNELNHCIVARIMHGGMIHRQGTLHVGDEIREINGISVANQTVEQLQKMLSEMRGSITFKIVP	-0.015 ± 0.023
VRLVQFQKNTDEPMGITLKMNELNHCIVARIMHGGMIHRQGTLHVGDEIREINGISVANQTVEQLQKFLREMRGSITFKIVP	-0.028 ± 0.058
VRAVQFQKNTDEPMGITLKMNELNHCIVARIMHGGMIHRQGTLHVGDEIREINGISVANQTVEQLQKMLREMRGSITFKIVP	-0.14 ± 0.029
VRLVQFQKNTDEWMGITLKMNELNHCIVARIMHGGMIHRQGTLHVGDEIREINGISVANQTVEQLQKMLREMRGSITFKIVP	-0.102 ± 0.098
VRLVQFQKNTDEPMGITLKMNELNHCIVARIMHGGMIHRQGTLHVGDEIRGINGISVANQTVEQLQKMLREMRGSITFKIVP	-0.048 ± 0.32
VRLVQFQKNTDEPMGITLKMNELNHCIVARIMHGGIIHRQGTLHVGDEIREINGISVANQTVEQLQKMLREMRGSITFKIVP	0.029 ± 0.061
VRLVQFQKNTDEPMGITLKMNELNHCIVARIMHGGAIHRQGTLHVGDEIREINGISVANQTVEQLQKMLREMRGSITFKIVP	0.039 ± 0.039
VRLVQFQKNTDEPMGITLKMNELNHCIVARIMHGGMIHRGGTLHVGDEIREINGISVANQTVEQLQKMLREMRGSITFKIVP	-0.097 ± 0.023
VRLVQFQKNTDEPMGITLKMNELNHCIVARIMHGGMIHRQGTLHVGDTIREINGISVANQTVEQLQKMLREMRGSITFKIVP	-0.123 ± 0.053
VRLVQFQKNTDEPMGITLKMNELNHCIVARIMHGGMIHRQGTLHVGDIIREINGISVANQTVEQLQKMLREMRGSITFKIVP	-0.073 ± 0.073
